From publication PMC11446229

Biological target: T1, CyaY, the frataxin homolog of Escherichia coli (E. coli), P27838
T1 chain: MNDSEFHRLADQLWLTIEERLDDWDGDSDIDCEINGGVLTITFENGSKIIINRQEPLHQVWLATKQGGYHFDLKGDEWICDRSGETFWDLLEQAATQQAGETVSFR
Test: native MS; CyaY above 35 uM in the titration of SufSE; charge states of CyaY multimers (Fig. S4)
Conditions: remark: other sources report otherwise

B1: CyaY, the frataxin homolog of Escherichia coli, P27838 1-106 (natural protein)
chain: T1 chain
Question: Which stoichiometry N does the source give for B1 here?
Answer: 2 to 3
